Source: PMC5099905

Biological target: E-cadherin (canine (endogenous in MDCK))
Assay: co-IP; 1 mg MDCK lysate (RIPA buffer) from Mock or DDR1-knockdown (Sh-DDR1) cells, incubated overnight at 4 °C with 1 μg anti-E-cadherin antibody, protein G-sepharose beads; immunoblot with anti-clathrin heavy chain; control antibody as negative control

clathrin heavy chain (natural protein)
fold increase of the clathrin/E-cadherin co-IP ratio, Sh-DDR1 cells against Mock cells: 3.5 fold
